# Reference: patent US20240084031A1 (Seagen, published 2024)
# T1: human CD70 on CD70 positive cell lines (human, UniProt P32970 1-193)
# T1 construct: whole, on cells
# T1 sequence (looked up): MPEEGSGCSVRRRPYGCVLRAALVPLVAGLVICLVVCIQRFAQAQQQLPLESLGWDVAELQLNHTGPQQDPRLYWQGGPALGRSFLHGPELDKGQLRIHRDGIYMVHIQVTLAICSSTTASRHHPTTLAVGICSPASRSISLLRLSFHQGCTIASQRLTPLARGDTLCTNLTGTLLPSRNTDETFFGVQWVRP
# T2: mouse CD70 (the corresponding antigen from mice) (mouse, UniProt O55237 45-195, limits assumed)
# T2 construct: Named only as 'the corresponding antigen from mice'
# T2 sequence (looked up): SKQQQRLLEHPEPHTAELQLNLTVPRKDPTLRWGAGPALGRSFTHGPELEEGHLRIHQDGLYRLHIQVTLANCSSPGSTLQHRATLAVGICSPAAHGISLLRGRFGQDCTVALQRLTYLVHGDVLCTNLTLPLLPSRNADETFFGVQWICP
# B1: humanized 1F6 antibody derivative HJLA (hVHJ and hVLA), human IgG1 (antibody)
# heavy: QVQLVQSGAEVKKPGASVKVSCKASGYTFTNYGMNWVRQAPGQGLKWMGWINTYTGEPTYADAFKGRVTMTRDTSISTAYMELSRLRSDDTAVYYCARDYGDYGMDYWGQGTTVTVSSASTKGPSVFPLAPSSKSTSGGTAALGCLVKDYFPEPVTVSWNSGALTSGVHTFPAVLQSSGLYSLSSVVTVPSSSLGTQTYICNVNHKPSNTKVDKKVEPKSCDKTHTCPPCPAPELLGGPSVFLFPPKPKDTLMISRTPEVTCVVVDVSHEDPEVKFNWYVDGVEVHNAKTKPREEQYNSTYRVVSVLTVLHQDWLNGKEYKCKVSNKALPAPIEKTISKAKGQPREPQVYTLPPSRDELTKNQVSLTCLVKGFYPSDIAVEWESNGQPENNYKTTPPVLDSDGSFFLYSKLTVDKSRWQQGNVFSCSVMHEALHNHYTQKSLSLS
# light: DIVMTQSPDSLAVSLGERATINCRASKSVSTSGYSFMHWYQQKPGQPPKLLIYLASNLESGVPDRFSGSGSGTDFTLTISSLQAEDVAVYYCQHSREVPWTFGQGTKVEIKRTVAAPSVFIFPPSDEQLKSGTASVVCLLNNFYPREAKVQWKVDNALQSGNSQESVTEQDSKDSTYSLSSTLTLSKADYEKHKVYACEVTHQGLSSPVTKSFNRGEC
# notes: also called h1F6 HJLA; h1F6 IgG1
# Experiments:
# [1] = biological target: T1, human CD70 on CD70 positive cell lines; assay: saturation binding of europium-labelled antibody to CD70+ Caki-2 cells (apparent KD)
# Source text: (§1) Humanized 1F6 antibody derivatives HDLA (hVHD and hVLA), HHLA (hVHH and hVLA), and HJLA (hVHJ and hVLA), and c1F6 were transiently expressed in 293 cells, labeled with europium using the Eu-N1 iodoacetamido chelate (Perkin Elmer), and analyzed for saturation binding to a panel of CD70 positive cell lines as described in detail in U.S. Patent Application No. 60/673,070, filed Apr. 19, 2005; and PCT International Publication No. WO 2006/113909.
# [2] = biological target: T1, human CD70 on CD70 positive cell lines; assay: saturation binding of europium-labelled antibody to CD70+ 786-O cells (apparent KD)
# Source text: as §1
# [3] = biological target: T3, human FcγRI, full length on stably transfected CHO cells (human, UniProt P12314 16-374); assay: cell-based competition binding on CHO cells expressing full-length FcγRI, 'performed as described previously' (50 nM Alexa Fluor 488-labelled h1F6 IgG1)
# T3 construct: whole, on cells; also called CD64; Fcγ receptor I
# T3 sequence (P12314 16-374): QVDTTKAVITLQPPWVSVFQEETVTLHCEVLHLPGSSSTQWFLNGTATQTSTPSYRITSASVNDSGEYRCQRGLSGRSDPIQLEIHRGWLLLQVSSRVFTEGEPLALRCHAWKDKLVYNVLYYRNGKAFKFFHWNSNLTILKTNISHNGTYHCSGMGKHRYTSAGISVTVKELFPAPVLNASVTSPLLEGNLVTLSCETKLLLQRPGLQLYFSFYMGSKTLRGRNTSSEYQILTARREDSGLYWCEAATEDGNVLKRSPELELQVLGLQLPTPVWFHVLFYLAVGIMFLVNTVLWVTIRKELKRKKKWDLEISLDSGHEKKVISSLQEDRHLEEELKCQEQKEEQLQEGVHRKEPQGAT
# Description: Binding of humanized anti-CD70 (h1F6) antibody to CHO cells expressing full-length FcγRI was determined by competition binding. […] Labeled cells were detected using an LSRII FACS analyzer.
# (§2) Binding of one of the variants, IgG1 S239C, to CHO cells expressing full-length FcγRIIIa and FcγRI was determined as described above. […] The control, parent antibody h1F6, binds to FcγRIIIa-expressing cells and FcγRI-expressing cells.
# [4] = biological target: T1, human CD70 on CD70 positive cell lines; assay: saturation binding of europium-labelled antibody to CD70+ Caki-1 cells (apparent KD)
# Source text: as §1
# [5] = biological target: T1, human CD70 on CD70 positive cell lines; assay: 786-O cell binding, apparent KD of the IgG
# [6] = biological target: T1, human CD70 on CD70 positive cell lines; assay: saturation binding of europium-labelled antibody to CD70+ ACHN cells (apparent KD)
# Source text: as §1
# [7] = biological target: T2, mouse CD70 (the corresponding antigen …); assay: not described (statement in the example on maximum tolerated dose)
# [8] = biological target: T4, human FcγRIIIa, 158V (high affinity), full length on stably transfected CHO cells (human, UniProt P08637 17-254); assay: cell-based competition binding on CHO cells expressing full-length FcγRIIIa, 'performed as described previously' (158V line, 100 nM Alexa Fluor 488-labelled h1F6 IgG1); the sheet says only FcγRIIIA
# T4 construct: whole, on cells; CHO DG44 line '158V'; also called CD16
# T4 sequence (P08637 17-254 F176V): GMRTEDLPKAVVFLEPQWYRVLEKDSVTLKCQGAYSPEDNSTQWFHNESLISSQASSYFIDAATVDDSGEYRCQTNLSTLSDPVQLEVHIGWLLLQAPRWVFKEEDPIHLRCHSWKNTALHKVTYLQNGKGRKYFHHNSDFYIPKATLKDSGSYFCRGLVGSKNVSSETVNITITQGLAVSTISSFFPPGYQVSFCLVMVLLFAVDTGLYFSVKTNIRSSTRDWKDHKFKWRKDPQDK
# Description: Binding of variant humanized anti-CD70 (h1F6) antibodies to CHO cells expressing full-length FcγRIIIa was also determined by competition binding. […] Labeled cells were detected using an LSRII FACS analyzer.
# as §2
binder,measurement,setting,value
B1,Kd,[1],0.37 nM
same,Kd,[2],0.46 nM
same,IC50 (read off the curve),[3],~6 nM
same,Kd,[4],1.36 nM
same,Kd,[5],0.6 nM
same,Kd,[6],0.68 nM
same,binding result,[7],no binding
same,IC50 (read off the curve),[8],~200 nM
